We go through three substances from patent publication US20240082816A1.

The target of test [1] is IgG. The test is described as follows: affinity precipitation: co-assembled with C12-VVEE at 10:1, binding molecule to IgG 10:1, 1 M ammonium sulfate, IgG in the supernatant by ProA column.
Test [2] deals with IgG. The test is described as follows: affinity precipitation: C12-VVEE to binding molecule 50:1, binding molecule to IgG 10:2, 1 M ammonium sulfate.
The target of test [3] is IgG. The experiment in a line: affinity precipitation: C12-VVEE to binding molecule 50:1, binding molecule to IgG 10:1, 1 M ammonium sulfate.
Test [4] concerns the target therapeutic human IgG1 (human). The test is described as follows: affinity precipitation: 5 mM C12-Z33 with 20 µM IgG1, 0.6 M Na2SO4, absorbance of the supernate at 280 nm.
Test [5] deals with therapeutic human IgG1 (human). The experiment in a line: ITC, 15 °C, PBS pH 7.4, reported per IgG1. A general note: ITC needs no label: the signal is the heat of the interaction.
Test [6] addresses therapeutic human IgG1 (human). The experiment in a line: ITC, 15 °C, PBS pH 7.4, reported per ligand.

Regarding “C12-VVKKGG-Z33 binding molecule (peptide)”, the IgG precipitated out from the solution with IgG [1] worked out at 30%. In addition, the IgG precipitation yield in the test with IgG [2] came to 75%; with IgG [3], 99%.
Substance “C12-Z33 immuno-amphiphile (self-assembled immunofibers) (peptide)” had an IgG1 removed from the supernate in test [4] of over 60%.
For Z33 peptide, in test [5], the -TΔS° was 43.4 kcal/mol, the ΔG° was -10 kcal/mol and the ΔH° is -53.4 kcal/mol. Besides, in test [6], the -TΔS° stood at 13.6 kcal/mol; the equilibrium dissociation constant (Kd) (in general, the concentration at which binding is half-saturated) came to 60 nM; the ΔG° was -9.5 kcal/mol; the ΔH° is -23.1 kcal/mol.
